These results are taken from US20090297520A1.

Where two headings read alike, the source gives them in different places. Ends that are not written are not given here.

Holding throughout (assay): cell-based or functional assay
The target of experiment [1] is human Kv1.3 (human) (UniProt P22001).
The next experiment has as its target human Kv1.1 (human) (UniProt Q09470).
Experiment [2] deals with human Kv1.3 (human) (UniProt P22001). The source holds these as a separate data set.

human Kv1.1 (human), sequence (Q09470 whole entry): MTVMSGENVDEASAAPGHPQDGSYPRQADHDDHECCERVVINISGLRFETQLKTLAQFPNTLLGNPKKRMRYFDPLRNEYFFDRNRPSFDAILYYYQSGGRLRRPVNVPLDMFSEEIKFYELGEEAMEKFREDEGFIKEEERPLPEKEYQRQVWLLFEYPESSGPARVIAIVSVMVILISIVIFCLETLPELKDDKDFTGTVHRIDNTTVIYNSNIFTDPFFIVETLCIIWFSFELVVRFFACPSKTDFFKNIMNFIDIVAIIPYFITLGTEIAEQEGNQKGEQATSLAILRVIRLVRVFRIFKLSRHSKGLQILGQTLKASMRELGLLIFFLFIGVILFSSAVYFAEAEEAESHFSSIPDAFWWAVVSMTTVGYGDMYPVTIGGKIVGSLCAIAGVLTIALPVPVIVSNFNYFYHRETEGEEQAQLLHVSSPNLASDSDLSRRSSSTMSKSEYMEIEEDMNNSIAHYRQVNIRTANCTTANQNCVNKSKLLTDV
human Kv1.3 (human), sequence (P22001 whole entry): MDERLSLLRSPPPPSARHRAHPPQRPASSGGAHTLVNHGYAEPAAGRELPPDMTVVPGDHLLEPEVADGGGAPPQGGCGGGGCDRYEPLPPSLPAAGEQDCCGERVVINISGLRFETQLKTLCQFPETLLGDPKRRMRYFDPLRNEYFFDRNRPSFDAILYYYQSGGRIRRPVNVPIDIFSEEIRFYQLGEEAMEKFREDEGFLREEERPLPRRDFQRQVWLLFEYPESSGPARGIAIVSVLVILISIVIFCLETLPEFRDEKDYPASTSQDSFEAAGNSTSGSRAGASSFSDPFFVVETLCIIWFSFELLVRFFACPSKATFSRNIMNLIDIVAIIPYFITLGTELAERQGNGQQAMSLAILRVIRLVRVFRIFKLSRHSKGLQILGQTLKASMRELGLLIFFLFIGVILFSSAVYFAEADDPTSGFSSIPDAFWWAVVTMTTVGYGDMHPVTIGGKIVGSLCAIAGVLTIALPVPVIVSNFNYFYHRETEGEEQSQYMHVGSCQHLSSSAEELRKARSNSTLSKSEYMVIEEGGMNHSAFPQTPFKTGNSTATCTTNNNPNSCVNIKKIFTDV

In the case of OSK1-K16, D20 (peptide), in the experiment with human Kv1.3 (human) [1], the WB/IFNg (IC50, nM), human whole blood stood at 1.32 nM and the WB/IL-2 (IC50, nM), human whole blood worked out at 1.58 nM.

The molecule “E. coli-derived Shk[1-35]-L-Fc (Fc fusion)” gave a Kv1.3 IC50 by IWQ (nM), IonWorks planar patch clamp on CHO/Kv1.3 cells in the experiment with human Kv1.3 (human) [1] of 2.4 nM.

In the experiment with human Kv1.3 (human) [1], “E. coli-derived ShK[2-35]-L-Fc (Fc fusion)” displayed a Kv1.3 IC50 by IWQ (nM), IonWorks planar patch clamp on CHO/Kv1.3 cells of 4.9 nM.

Turning to PEG-OSK1 (peptide), the peak IC50, whole cell patch clamp with human Kv1.3 (human) [1] came to 1.28 nM.

Regarding “Fc-L5-ShK[2-35] (CHO-derived, bivalent dimeric) (Fc fusion)”, the IC50, block of outward potassium current, whole cell patch clamp with human Kv1.3 (human) [1] worked out at 0.1 nM.

For Synthetic OSK1 (peptide), in the experiment with human Kv1.1 (human), the hKv1.1/hKv1.3 (ratio of IC50s, reference hKv1.3) stood at 4 and the hKv1.1: IC50 [pM], whole cell patch clamp came to 160 pM. This molecule came in with a hKv1.3: IC50 [pM], whole cell patch clamp with human Kv1.3 (human) [1] of 39 pM.

“PEG-Fc-L10-SHK(2-35), pool 2 (Fc fusion)”: the IC50 Sustained (nM), pool 2 with human Kv1.3 (human) [1] was 0.158 nM.

In the experiment with human Kv1.3 (human) [1], “Fc-L10-ShK[2-35] (CHO-derived, bivalent dimeric) (Fc fusion)” showed an IC50, block of outward potassium current, whole cell patch clamp of 0.115 nM.

In the experiment with human Kv1.3 (human) [1], 20k PEG-ShK (peptide) yielded a WB/IFNg (IC50, nM), human whole blood of 0.065 nM and a WB/IL-2 (IC50, nM), human whole blood of 0.046 nM.

“E. coli-derived Fc-L-ShK[2-35] (Fc fusion)”: in the experiment with human Kv1.3 (human) [1], the Kv1.3 IC50 by IWQ (nM), IonWorks planar patch clamp on CHO/Kv1.3 cells worked out at 2.8 nM and the Kv1.3 IC50 by WCVC (nM), whole cell patch clamp on HEK293/Kv1.3 cells was found to be 1.3 nM.

Consider OSK1 (synthetic Osk1 toxin peptide), for which the IC50, block of outward potassium current, whole cell patch clamp with human Kv1.3 (human) [1] came out at 0.039 nM.

In the experiment with human Kv1.3 (human) [1], 20k PEG-OSK1[Ala29, 1Nal34] (peptide) came in with a WB/IFNg (IC50, nM), human whole blood of 0.081 nM and a WB/IL-2 (IC50, nM), human whole blood of 0.049 nM.

In turn, “PEG-Fc-L10-SHK(2-35), pool 3 (Fc fusion)” returned an IC50 Sustained (nM), pool 3 in the experiment with human Kv1.3 (human) [1] of 0.175 nM.

Fc-L10-OSK1 (Fc fusion) gave a hKv1.1: IC50 [pM], whole cell patch clamp in the experiment with human Kv1.1 (human) of 41600 pM.

Regarding E. coli-derived Fc-L-OSK1 (Fc fusion), the Kv1.3 IC50 by WCVC (nM), whole cell patch clamp on HEK293/Kv1.3 cells with human Kv1.3 (human) [1] turned out to be 3.2 nM.

In turn, native OSK1 (peptide) gave a Kv1.1 (IC50, pM), whole cell patch clamp ePhys with human Kv1.1 (human) of 202 pM. In the experiment with human Kv1.3 (human) [1], this molecule displayed a Kv1.3 (IC50, pM), whole cell patch clamp ePhys of 39 pM and a Kv1.3 Selectivity (=Kv1.1/Kv.3 IC50) of 5 fold.

As to GGGGS-Osk1 (peptide), in the experiment with human Kv1.3 (human) [1], the WB/IFNg (IC50, nM), human whole blood was 2.2 nM and the WB/IL-2 (IC50, nM), human whole blood is 1.36 nM.

On to “E. coli-derived Fc-L-ShK[1-35] (Fc fusion)”, for which, in the experiment with human Kv1.3 (human) [1], the Kv1.3 IC50 by WCVC (nM), whole cell patch clamp on HEK293/Kv1.3 cells is 1.4 nM.

Consider PEG-Fc-L10-OSK1, pool 3 (Fc fusion), for which the IC50 Sustained (nM), pool 3 in the experiment with human Kv1.3 (human) [1] was determined as 0.256 nM.

PEG-Fc-L10-OSK1, pool 2 (Fc fusion) displayed an IC50 Sustained (nM), pool 2 with human Kv1.3 (human) [1] of 0.332 nM.

“Fc-L25-ShK[2-35] (CHO-derived, bivalent dimeric) (Fc fusion)”: the IC50, whole cell patch clamp on HEK293/Kv1.3 cells with human Kv1.3 (human) [1] was found to be 0.15 nM.

SCIDTIPKSRCTAFQCKHSMKYRLSFCRKTCGTC (not fully specified; ends and bridges not checked) [ShK[2-35] (synthetic peptide analog)]: in the experiment with human Kv1.3 (human) [2], the IC50, block of outward potassium current, whole cell patch clamp was found to be 0.049 nM.

In the experiment with human Kv1.3 (human) [2], RSCIDTIPKSRCTAFQCKHSMKYRLSFCRKTCGTC (not fully specified (N-terminus); ends and bridges not checked) [20K PEG-ShK[1-35]] had a peak IC50, whole cell patch clamp of 0.169 nM.
